Measurements reported in article PMC10382551, “Affinity-matured homotypic interactions induce spectrum of PfCSP structures that influence protection from malaria infection” (Nature Communications, 2023).
Ends that are not written are not given here.

T1: NPNA4 peptide (Plasmodium falciparum (isolate 3D7)., not fully specified)
T1 construct: source: synthetic peptide (InnoPep Inc)
T1 chain: NPNANPNANPNANPNA

T2: NPNA8 peptide (Plasmodium falciparum (isolate 3D7)., not fully specified)
T2 construct: source: synthetic peptide (InnoPep Inc)
T2 chain: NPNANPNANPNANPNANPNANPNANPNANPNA

T3: NPNA8 peptide (Plasmodium falciparum (isolate 3D7)., not fully specified)
T3 construct: source: synthetic peptide (InnoPep Inc, purity >=97%)
T3 chain: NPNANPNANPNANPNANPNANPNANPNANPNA

T4: NPNA4 peptide (Plasmodium falciparum (isolate 3D7)., not fully specified)
T4 construct: source: synthetic peptide (InnoPep Inc, purity >=97%)
T4 chain: NPNANPNANPNANPNA


Columns and labels:
Assay in all cases: BLI
Details in all cases: both partners purified
[1] = biological target: T1, NPNA4 peptide
[2] = biological target: T2, NPNA8 peptide
[3] = biological target: T3, NPNA8 peptide
[4] = biological target: T4, NPNA4 peptide

Row | Binder | Kd [1] [µM] | koff [1] [s⁻¹] | kon [1] [M⁻¹ s⁻¹] | Kd [2] [µM] | koff [2] [s⁻¹] | kon [2] [M⁻¹ s⁻¹] | Kd [3] [µM] | Kd [4] [µM]
1 | 227 Fab (Fab, V domains shown, also called mAb 227; source: ExpiCHO cells, purified (mAb Select PrismA or Capture Select, SEC)) VH: QVQLVQSGGGVVQPGRSLRLSCVTSGFTFPAFGMHWVRQAPGKGLEWVAVIWYDGSKKYYADSVRGRFTISRDNSRNTLYLQMHSLRAEDTAVYYCARVKNYESSGYSQCLDYWGQGVLVTVAS VL: QSVLTQPPSVSGAPGQRVTISCTGSSSNIGAGYDVHWYQQLPGTAPKLLIYGNGNRPSGVPDRFSGSKSGTSVSLAITGLQAEDEADYYCQSYDSSLSAFVFGTGTKVTVL | 0.0375 | 0.0058 | 130000 | 0.0803 | 0.0035 | 40000 | – | –
2 | 239 Fab (Fab, V domains shown, also called mAb 239; source: ExpiCHO cells, purified (mAb Select PrismA or Capture Select, SEC)) VH: QVQLVESGGGVVQPGRSLRLSCAASRLTFRNFGMHWVRQTPGKGLEWVAVIWHDGSNKFYADSVEGRFTISRDNSKNTLYLQMNSLRDEDTAIYYCAKDWGGASDRVFDYWGRGTLVIVSS VL: DIQMTQSPSTLSASVGDRVTITCRASQSVSTSLAWYQQKPGKAPNLLIYQASTLYRGVPSRFSGSGSGTEFTLTIGSLQPDDFATYYCQHYNSYSRITFGQGTRLEIK | 0.0447 | 0.0063 | 110000 | 0.0072 | 0.00056 | 83000 | – | –
3 | 239R Fab (Fab, V domains shown, also called germline-reverted 239; source: ExpiCHO cells, purified (mAb Select PrismA or Capture Select, SEC)) VH: QVQLVESGGGVVQPGRSLRLSCAASRLTFSSYGMHWVRQTPGKGLEWVAVIWHDGSNKFYADSVKGRFTISRDNSKNTLYLQMNSLRDEDTAIYYCAKDWGGASDRVFDYWGRGTLVIVSS VL: DIQMTQSPSTLSASVGDRVTITCRASQSVSTSLAWYQQKPGKAPNLLIYQASTLYTGVPSRFSGSGSGTEFTLTIGSLQPDDFATYYCQHYNSYSRITFGQGTRLEIK | 0.165 | 0.033 | 410000 | 0.205 | 0.022 | 120000 | – | –
4 | 311 Fab (Fab, V domains shown, also called mAb 311; source: ExpiCHO cells, purified (mAb Select PrismA or Capture Select, SEC)) VH: QVQLVESGGGVVPPGRSLRLSCATSGFTFSNYGMHWVRQAPGKGLEWVAIIWYDGSRNFYAASVEGRFTISRDNSKNTLYLQMNSLRVEDTAVYYCARAAYYDTSGYGDYWGQGTLVTVSS VL: QSVLTQPPSVSGAPGQTVTISCTGGSSNIGAGYDVHWYQQLPGTAPKLLIYGNINRPSGVPDRFSGSKSGTSASLAITGLQAEDEADYYCQSYDRRLSGSWVFGGGTKLTVL | 0.212 | 0.0041 | 27000 | 0.0061 | 0.00025 | 66000 | – | –
5 | 311R Fab (Fab, V domains shown, also called germline-reverted 311; source: ExpiCHO cells, purified (mAb Select PrismA or Capture Select, SEC)) VH: QVQLVESGGGVVPPGRSLRLSCATSGFTFSSYGMHWVRQAPGKGLEWVAIIWYDGSNKFYAASVKGRFTISRDNSKNTLYLQMNSLRVEDTAVYYCARAAYYDTSGYGDYWGQGTLVTVSS VL: QSVLTQPPSVSGAPGQTVTISCTGGSSNIGAGYDVHWYQQLPGTAPKLLIYGNINRPSGVPDRFSGSKSGTSASLAITGLQAEDEADYYCQSYDSSLSGSWVFGGGTKLTVL | 0.0674 | 0.0088 | 71000 | 0.211 | 0.0051 | 71000 | – | –
6 | 334 Fab (Fab, V domains shown, also called mAb 334; source: ExpiCHO cells, purified (mAb Select PrismA or Capture Select, SEC)) VH: QVQLVESGGGVVQPGRSLTLSCAASGFTFSNYGMHWVRQTPGKGLAWVAIIWYDGSKTYYEDSVKGRFTISRDNSKNTLYLQMNSLRVDDTAVYYCARVRHSSSRHGSAFDLWGQGTLVTVSS VL: VIQMTQSPSTLSASVGDRVTITCRASQSVSTWLAWYQQKPGQGPKLLIYEASSLESGVPSRFSGSGSGTEFTLTISSLQPDDFATYYCQQYNSYSFWTFGQGTKVEIK | 0.0499 | 0.0021 | 53000 | 0.0224 | 0.0013 | 52000 | – | –
7 | 337 Fab (Fab, V domains shown, also called mAb 337; source: ExpiCHO cells, purified (mAb Select PrismA or Capture Select, SEC)) VH: QVQLVESGGGVVQPGRSLRLSCAASGFSFSTYGMHWVRQAPGKGLEWVALIWHDGSKKFYSESVRGRFTISRDNSMDTLYLQMSSLRAEDTAVYYCARDGADYFDSTGGAFDIWGQGTMVIVSS VL: EIVMTQSPATLSVSPGERATLSCRASQSVSSNLAWYQQKPGQAPRLLIYGASTRATGIPARFSGSGSGTEFTLTISSLQSEDFATYYCQQYKTWWTFGQGTKVEIK | 0.0369 | 0.007 | 130000 | 0.0394 | 0.0035 | 66000 | – | –
8 | 356 Fab (Fab, V domains shown, also called mAb 356; source: ExpiCHO cells, purified (mAb Select PrismA or Capture Select, SEC)) VH: QVQLVESGGGVVQPGRSLRLSCAASGFTFRNFGMHWVRQTPGKGLEWVAVIWHDGSNKFYADSVEGRFTISRDNSKNMIYLQMNSLRVEDTAIYYCARDSLFYDHDNSGYYGYWGQGTLVTVSS VL: QIVMTQSPATVSVSPGERATLSCRASRSVTSKLAWYQQKPGQAPRLLIYGASTRATGIPARFSGSGSGTEFTLTISSLQSEDFAVYFCQQYNNGFTFGPGTKVDFK | 0.123 | 0.013 | 80000 | 0.0064 | 0.00056 | 87000 | – | –
9 | 356R Fab (Fab, V domains shown, also called germline-reverted 356; source: ExpiCHO cells, purified (mAb Select PrismA or Capture Select, SEC)) VH: QVQLVESGGGVVQPGRSLRLSCAASGFTFSSYGMHWVRQTPGKGLEWVAVIWHDGSNKFYADSVKGRFTISRDNSKNMIYLQMNSLRVEDTAIYYCARDSLFYDHDNSGYYGYWGQGTLVTVSS VL: EIVMTQSPATVSVSPGERATLSCRASQSVTSKLAWYQQKPGQAPRLLIYGASTRATGIPARFSGSGSGTEFTLTISSLQSEDFAVYFCQQYNNGFTFGPGTKVDFK | 0.079 | 0.03 | 560000 | 0.124 | 0.017 | 79000 | – | –
10 | 364 Fab (Fab, V domains shown, also called mAb 364; source: ExpiCHO cells, purified (mAb Select PrismA or Capture Select, SEC)) VH: QVQLVESGGGVVQPGGSLRLSCAASGFTFSGYGMHWVRQVPGKGLEWVAIIWFDGSQKYYADSVQGRFTISRDNSKKTLFLRMNSLRAEDTAVYYCAKVHDDEPTQDYWGQGTLVTVSS VL: DIQMTQSPSTLSASVGDRVTITCRASQGISTSLAWYQQKPGKAPKLLIYKASSLESGVPSRFSGSGSGTEFTLTITSLQPEDFATYYCQQYKRYWTFGQGTKVEIK | 0.26 | 0.0027 | 43000 | 0.0049 | 0.00027 | 65000 | – | –
11 | 227 Fab (Fab, V domains shown, source: ExpiCHO cells, purified (mAb Select PrismA or Capture Select, SEC)) VH: QVQLVQSGGGVVQPGRSLRLSCVTSGFTFPAFGMHWVRQAPGKGLEWVAVIWYDGSKKYYADSVRGRFTISRDNSRNTLYLQMHSLRAEDTAVYYCARVKNYESSGYSQCLDYWGQGVLVTVAS VL: QSVLTQPPSVSGAPGQRVTISCTGSSSNIGAGYDVHWYQQLPGTAPKLLIYGNGNRPSGVPDRFSGSKSGTSVSLAITGLQAEDEADYYCQSYDSSLSAFVFGTGTKVTVL | – | – | – | – | – | – | 0.0237 | 0.0463
12 | 356R Fab (Fab, V domains shown, also called Fab356R; germline-reverted 356; source: ExpiCHO cells, purified (mAb Select PrismA or Capture Select, SEC)) VH: QVQLVESGGGVVQPGRSLRLSCAASGFTFSSYGMHWVRQTPGKGLEWVAVIWHDGSNKFYADSVKGRFTISRDNSKNMIYLQMNSLRVEDTAIYYCARDSLFYDHDNSGYYGYWGQGTLVTVSS VL: EIVMTQSPATVSVSPGERATLSCRASQSVTSKLAWYQQKPGQAPRLLIYGASTRATGIPARFSGSGSGTEFTLTISSLQSEDFAVYFCQQYNNGFTFGPGTKVDFK | – | – | – | – | – | – | 0.124 | 0.065
13 | 239 Fab (Fab, V domains shown, source: ExpiCHO cells, purified (mAb Select PrismA or Capture Select, SEC)) VH: QVQLVESGGGVVQPGRSLRLSCAASRLTFRNFGMHWVRQTPGKGLEWVAVIWHDGSNKFYADSVEGRFTISRDNSKNTLYLQMNSLRDEDTAIYYCAKDWGGASDRVFDYWGRGTLVIVSS VL: DIQMTQSPSTLSASVGDRVTITCRASQSVSTSLAWYQQKPGKAPNLLIYQASTLYRGVPSRFSGSGSGTEFTLTIGSLQPDDFATYYCQHYNSYSRITFGQGTRLEIK | – | – | – | – | – | – | 0.00722 | 0.0447
14 | 311 Fab (Fab, V domains shown, source: ExpiCHO cells, purified (mAb Select PrismA or Capture Select, SEC)) VH: QVQLVESGGGVVPPGRSLRLSCATSGFTFSNYGMHWVRQAPGKGLEWVAIIWYDGSRNFYAASVEGRFTISRDNSKNTLYLQMNSLRVEDTAVYYCARAAYYDTSGYGDYWGQGTLVTVSS VL: QSVLTQPPSVSGAPGQTVTISCTGGSSNIGAGYDVHWYQQLPGTAPKLLIYGNINRPSGVPDRFSGSKSGTSASLAITGLQAEDEADYYCQSYDRRLSGSWVFGGGTKLTVL | – | – | – | – | – | – | 0.00611 | 0.212
15 | 334 Fab (Fab, V domains shown, source: ExpiCHO cells, purified (mAb Select PrismA or Capture Select, SEC)) VH: QVQLVESGGGVVQPGRSLTLSCAASGFTFSNYGMHWVRQTPGKGLAWVAIIWYDGSKTYYEDSVKGRFTISRDNSKNTLYLQMNSLRVDDTAVYYCARVRHSSSRHGSAFDLWGQGTLVTVSS VL: VIQMTQSPSTLSASVGDRVTITCRASQSVSTWLAWYQQKPGQGPKLLIYEASSLESGVPSRFSGSGSGTEFTLTISSLQPDDFATYYCQQYNSYSFWTFGQGTKVEIK | – | – | – | – | – | – | 0.0224 | 0.0499
16 | 337 Fab (Fab, V domains shown, source: ExpiCHO cells, purified (mAb Select PrismA or Capture Select, SEC)) VH: QVQLVESGGGVVQPGRSLRLSCAASGFSFSTYGMHWVRQAPGKGLEWVALIWHDGSKKFYSESVRGRFTISRDNSMDTLYLQMSSLRAEDTAVYYCARDGADYFDSTGGAFDIWGQGTMVIVSS VL: EIVMTQSPATLSVSPGERATLSCRASQSVSSNLAWYQQKPGQAPRLLIYGASTRATGIPARFSGSGSGTEFTLTISSLQSEDFATYYCQQYKTWWTFGQGTKVEIK | – | – | – | – | – | – | 0.0394 | 0.0369
17 | 356 Fab (Fab, V domains shown, source: ExpiCHO cells, purified (mAb Select PrismA or Capture Select, SEC)) VH: QVQLVESGGGVVQPGRSLRLSCAASGFTFRNFGMHWVRQTPGKGLEWVAVIWHDGSNKFYADSVEGRFTISRDNSKNMIYLQMNSLRVEDTAIYYCARDSLFYDHDNSGYYGYWGQGTLVTVSS VL: QIVMTQSPATVSVSPGERATLSCRASRSVTSKLAWYQQKPGQAPRLLIYGASTRATGIPARFSGSGSGTEFTLTISSLQSEDFAVYFCQQYNNGFTFGPGTKVDFK | – | – | – | – | – | – | 0.00635 | 0.123
18 | 364 Fab (Fab, V domains shown, source: ExpiCHO cells, purified (mAb Select PrismA or Capture Select, SEC)) VH: QVQLVESGGGVVQPGGSLRLSCAASGFTFSGYGMHWVRQVPGKGLEWVAIIWFDGSQKYYADSVQGRFTISRDNSKKTLFLRMNSLRAEDTAVYYCAKVHDDEPTQDYWGQGTLVTVSS VL: DIQMTQSPSTLSASVGDRVTITCRASQGISTSLAWYQQKPGKAPKLLIYKASSLESGVPSRFSGSGSGTEFTLTITSLQPEDFATYYCQQYKRYWTFGQGTKVEIK | – | – | – | – | – | – | 0.00488 | 0.26
